# Laboratory results reported in the supplement of paper PMC9112550, “Optimization of the antimicrobial peptide Bac7 by deep mutational scanning” (BMC Biology, 2022).
# Tested on: Escherichia coli TOP10
# Test: shrunken log2 fold change of peptide-encoding DNA abundance (4.5 h post-induction vs induction); higher = less antimicrobial activity (less host growth inhibition)
# Settings: time post-induction: 4.5 h; library: site-saturation at positions 5, 18, 19, 20
# 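Also: peptides expressed intracellularly from a pBAD plasmid library in pooled LB shake-flask culture, induced with 0.3% L-arabinose, DNA abundance read by NGS, three biological replicates, DESeq2 with apeglm shrinkage.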
row,Sequence,shrunken log2 fold change
1,RRIRLRPPRLPRPRPRPLMNPRP,-0.253
2,RRIRVRPPRLPRPRPRPSCRPRP,-0.0227
3,RRIRNRPPRLPRPRPRPNIFPRP,-0.29
4,RRIRTRPPRLPRPRPRPTGQPRP,0.031
5,RRIRGRPPRLPRPRPRPHHYPRP,-0.524
6,RRIRNRPPRLPRPRPRPWECPRP,-0.00145
7,RRIRGRPPRLPRPRPRPDARPRP,0.34
8,RRIRHRPPRLPRPRPRPPVPPRP,0.441
9,RRIRGRPPRLPRPRPRPGKDPRP,0.18
10,RRIRRRPPRLPRPRPRPAMSPRP,0.157
11,RRIRYRPPRLPRPRPRPQAMPRP,-0.418
12,RRIRKRPPRLPRPRPRPFHVPRP,-0.265
13,RRIRYRPPRLPRPRPRPCMMPRP,0.00911
14,RRIRDRPPRLPRPRPRPFVKPRP,-0.1
15,RRIRARPPRLPRPRPRPDLWPRP,1.51
16,RRIRKRPPRLPRPRPRPVHTPRP,0.00666
17,RRIRCRPPRLPRPRPRPCAKPRP,-0.168
18,RRIRPRPPRLPRPRPRPSYAPRP,-0.106
19,RRIRQRPPRLPRPRPRPLYRPRP,0.0401
20,RRIRMRPPRLPRPRPRPLKLPRP,0.0525
21,RRIRSRPPRLPRPRPRPGENPRP,0.894
22,RRIRLRPPRLPRPRPRPCCAPRP,0.694

row,Sequence,shrunken log2 fold change
1,RRIRHRPPRLPRPRPRPDIKPRP,-0.559
2,RRIRLRPPRLPRPRPRPYRVPRP,-0.00141
3,RRIRPRPPRLPRPRPRPCGHPRP,-0.0439
4,RRIRARPPRLPRPRPRPRDRPRP,0.706
5,RRIRCRPPRLPRPRPRPFCWPRP,0.31
6,RRIRGRPPRLPRPRPRPVKKPRP,0.949
7,RRIRYRPPRLPRPRPRPSWLPRP,-0.78
8,RRIRDRPPRLPRPRPRPITAPRP,-0.283
9,RRIRVRPPRLPRPRPRPFIAPRP,-0.448
10,RRIRFRPPRLPRPRPRPILHPRP,-0.75
11,RRIRSRPPRLPRPRPRPFCHPRP,-0.162
12,RRIRLRPPRLPRPRPRPMHLPRP,-0.0248
13,RRIRYRPPRLPRPRPRPRHVPRP,-0.0478
14,RRIRGRPPRLPRPRPRPIDWPRP,0.559
15,RRIRWRPPRLPRPRPRPICPPRP,-0.0872
16,RRIRKRPPRLPRPRPRPVMEPRP,0.581
17,RRIRWRPPRLPRPRPRPAPCPRP,0.322
18,RRIRARPPRLPRPRPRPWATPRP,0.494
19,RRIRFRPPRLPRPRPRPCPYPRP,-0.261
20,RRIRCRPPRLPRPRPRPCEPPRP,-0.221
21,RRIRPRPPRLPRPRPRPTQTPRP,0.147
22,RRIRKRPPRLPRPRPRPCRPPRP,0.0439

row,Sequence,shrunken log2 fold change
1,RRIRKRPPRLPRPRPRPEEMPRP,-0.000157
2,RRIRQRPPRLPRPRPRPLNRPRP,-0.191
3,RRIRNRPPRLPRPRPRPSCFPRP,-0.398
4,RRIRGRPPRLPRPRPRPDQWPRP,0.665
5,RRIRERPPRLPRPRPRPVWKPRP,0.00515
6,RRIRVRPPRLPRPRPRPWFVPRP,-0.475
7,RRIRTRPPRLPRPRPRPWYYPRP,-0.117
8,RRIRCRPPRLPRPRPRPSAYPRP,-0.406
9,RRIRTRPPRLPRPRPRPGFTPRP,-0.0298
10,RRIRYRPPRLPRPRPRPKTTPRP,-0.0197
11,RRIRWRPPRLPRPRPRPNDAPRP,0.0398
12,RRIRLRPPRLPRPRPRPHWAPRP,-0.177
13,RRIRERPPRLPRPRPRPLIWPRP,-0.364
14,RRIRCRPPRLPRPRPRPELMPRP,0.23
15,RRIRIRPPRLPRPRPRPKMPPRP,0.0103
16,RRIRMRPPRLPRPRPRPNSQPRP,-0.075
17,RRIRARPPRLPRPRPRPARAPRP,0.834
18,RRIRARPPRLPRPRPRPCGDPRP,-0.239
19,RRIRGRPPRLPRPRPRPVVFPRP,0.56
20,RRIRLRPPRLPRPRPRPDMIPRP,-0.0232
21,RRIRWRPPRLPRPRPRPVDKPRP,-0.0524
22,RRIRMRPPRLPRPRPRPHIPPRP,-0.289

row,Sequence,shrunken log2 fold change
1,RRIRVRPPRLPRPRPRPKMWPRP,0.0893
2,RRIRNRPPRLPRPRPRPYMPPRP,-0.0173
3,RRIRYRPPRLPRPRPRPERKPRP,-0.109
4,RRIRSRPPRLPRPRPRPWADPRP,-0.307
5,RRIRKRPPRLPRPRPRPAFIPRP,0.129
6,RRIRARPPRLPRPRPRPGPDPRP,0.455
7,RRIRNRPPRLPRPRPRPYCDPRP,-0.0156
8,RRIRDRPPRLPRPRPRPSAPPRP,0.0189
9,RRIRTRPPRLPRPRPRPMLMPRP,-0.248
10,RRIRGRPPRLPRPRPRPAMRPRP,1.17
11,RRIRIRPPRLPRPRPRPLEFPRP,-0.196
12,RRIRNRPPRLPRPRPRPHSNPRP,-0.341
13,RRIRPRPPRLPRPRPRPDYSPRP,-0.815
14,RRIRQRPPRLPRPRPRPTCDPRP,-0.116
15,RRIRCRPPRLPRPRPRPGMPPRP,-0.257
16,RRIRCRPPRLPRPRPRPPVDPRP,0.787
17,RRIRKRPPRLPRPRPRPHTMPRP,0.205
18,RRIRIRPPRLPRPRPRPRAAPRP,0.458
19,RRIRDRPPRLPRPRPRPNRCPRP,0.0339
20,RRIRMRPPRLPRPRPRPRFCPRP,1.63
21,RRIRYRPPRLPRPRPRPHWDPRP,-0.92
22,RRIRWRPPRLPRPRPRPVQFPRP,0.0316

row,Sequence,shrunken log2 fold change
1,RRIRVRPPRLPRPRPRPTWFPRP,0.177
2,RRIRLRPPRLPRPRPRPWQVPRP,0.0253
3,RRIRFRPPRLPRPRPRPTGNPRP,-0.245
4,RRIRRRPPRLPRPRPRPVKAPRP,0.148
5,RRIRNRPPRLPRPRPRPTIHPRP,-0.46
6,RRIRRRPPRLPRPRPRPSGAPRP,0.536
7,RRIRNRPPRLPRPRPRPKWNPRP,-0.319
8,RRIRSRPPRLPRPRPRPDQSPRP,0.217
9,RRIRSRPPRLPRPRPRPNTYPRP,-0.232
10,RRIRERPPRLPRPRPRPKHEPRP,-0.205
11,RRIRYRPPRLPRPRPRPPKLPRP,-0.172
12,RRIRCRPPRLPRPRPRPFHFPRP,-0.954
13,RRIRNRPPRLPRPRPRPMSPPRP,-0.000685
14,RRIRHRPPRLPRPRPRPFAMPRP,-0.424
15,RRIRWRPPRLPRPRPRPAAPPRP,0.613
16,RRIRERPPRLPRPRPRPTYQPRP,-0.136
17,RRIRGRPPRLPRPRPRPVRLPRP,0.525
18,RRIRFRPPRLPRPRPRPVSAPRP,0.25
19,RRIRIRPPRLPRPRPRPCEIPRP,-0.0178
20,RRIRVRPPRLPRPRPRPFSLPRP,-0.348
21,RRIRYRPPRLPRPRPRPFEWPRP,0.0273
